Data as given in article PMC6193675 (PLoS ONE, 2018).

B1: reconstructed predicted precursor form of antibody VRC01 (antibody, V domains shown)
VH: not shown
VL: EIVLTQSPATLSLSPGERATLSCRASQSVSSYLAWYQQKPGQAPRLLIYDASNRATGIPARFSGSGSGTDFTLTISSLEPEDFAVYYCQQRSNWPYTFGQGTKLEIK
notes: V(D)J segments with the highest identity to mature VRC01 (IgBLAST), mature HCDR3 kept; Detected with anti-human secondary antibodies; also called precursor for antibody VRC01; VRC01 precursor; source: HEK293T, transfected, purified
B2: reconstructed predicted precursor form of antibody 447-52D (antibody, V domains shown)
VH: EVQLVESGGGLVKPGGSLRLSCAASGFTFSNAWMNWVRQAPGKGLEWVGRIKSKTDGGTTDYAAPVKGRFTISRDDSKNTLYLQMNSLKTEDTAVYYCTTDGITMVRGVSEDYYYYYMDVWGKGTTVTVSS
VL: QSVLTQPPSVSAAPGQKVTISCSGSSSNIGNNYVSWYQQLPGTAPKLLIYDNNKRPSGIPDRFSGSKSGTSATLGITGLQTGDEADYYCGTWDSSLSAGWVFGGGTKLTVL
notes: V(D)J segments with the highest identity to mature 447-52D (IgBLAST), mature HCDR3 kept; Detected with anti-human secondary antibodies; also called precursor for antibody 447-52D; 447-52D precursor; source: HEK293T, transfected, purified

Target: yeast-displayed unmodified gp140 from HIV strain YU2, fused at its C-terminal to Aga2p (HIV-1 group M subtype B, isolate YU-2, UniProt P35961, strain)
Experiment: flow cytometry on cells; yeast cells displaying YU2 Env-Aga2p fusions incubated with 100 nM precursor antibody at 4°C for 16-18 h in PBI (PBS pH 7.2, 1% BSA, protease inhibitors); fluorescent secondary antibody
Settings: one partner purified

Binder | binding result
B1 | no binding (tested: 100 nM)
B2 | no binding (tested: 100 nM)
